# Test results published in patent publication US20050241007.
# System: Frog Prince transposase (consensus, FP) (Rana pipiens)
# Experiment: cell_activity
# Conditions: G418-resistant colony increase in HeLa cells
# Sequence of Frog Prince transposase (consensus, FP) (Rana pipiens) (chain, as listed by the source): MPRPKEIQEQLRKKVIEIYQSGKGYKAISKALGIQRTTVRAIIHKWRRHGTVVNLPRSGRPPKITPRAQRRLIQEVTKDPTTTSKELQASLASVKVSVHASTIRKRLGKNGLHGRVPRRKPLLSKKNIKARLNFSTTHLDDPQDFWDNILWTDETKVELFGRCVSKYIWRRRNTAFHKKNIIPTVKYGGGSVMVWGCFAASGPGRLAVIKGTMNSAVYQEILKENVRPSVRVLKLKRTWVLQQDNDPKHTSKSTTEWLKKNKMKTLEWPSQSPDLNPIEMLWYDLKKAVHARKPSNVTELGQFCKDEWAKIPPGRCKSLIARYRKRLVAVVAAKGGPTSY
Substance,activity (transposition) [fold],activity (cross-mobilization) [fold]
CAGTGGTGTGAAAAAGTGTTTGCCCCCTTCCTCATTTCCTGTTCCTTTGCATGTTTGTCACACTTAAGTGTTTCGGAACATCAAACCAATTTAAACAATAGTCAAGGACAACACAAGTAAACACAAAATGCAATTTGTAAATGAAGGTGTTTATTATTAAAGGTGAAAAAAAATCCAAACCATCATGGCCCTGTGTGAAAAAGTGATTGCCCCCCTTGTTAAAACATACTATAACTGTGGTTGTCCACAC (double strand) [Frog Prince transposon inverted repeat (pFrogPrince-neo)],17,–
Txr transposon (pTxr-neo),–,5
